Tests used:
[1] = target: T1, human CD3 (TCR/CD3 complex on the cell surface) (human, UniProt P07766 23-207; P04234 22-171; P09693 23-182); assay: flow cytometry, Pan-T cells, 1 ug/mL
T1 construct: whole, on cells; Native CD3 on human Pan-T cells or Jurkat wild-type cells; also called CD3 on Pan-T cells; CD3 on Jurkat WT cells

[2] = target: T1, human CD3 (TCR/CD3 complex on the cell …); assay: flow cytometry, Jurkat WT cells, 10 ug/mL
[3] = target: T1, human CD3 (TCR/CD3 complex on the cell …); assay: flow cytometry, Pan-T cells, 10 ug/mL
[4] = target: T1, human CD3 (TCR/CD3 complex on the cell …); assay: flow cytometry, Jurkat WT cells, 1 ug/mL
[5] = target: T1, human CD3 (TCR/CD3 complex on the cell …); assay: flow cytometry, Jurkat WT gMFI over Jurkat KO gMFI, 1 ug/mL
[6] = target: T1, human CD3 (TCR/CD3 complex on the cell …); assay: flow cytometry, Jurkat WT gMFI over Jurkat KO gMFI, 10 ug/mL

T1 sequence (P07766 23-207, chain 1 of 3): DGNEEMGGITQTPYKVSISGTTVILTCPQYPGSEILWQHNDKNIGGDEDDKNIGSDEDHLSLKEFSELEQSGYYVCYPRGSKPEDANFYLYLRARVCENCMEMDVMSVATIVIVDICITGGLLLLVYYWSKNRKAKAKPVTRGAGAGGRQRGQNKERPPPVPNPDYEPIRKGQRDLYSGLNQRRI
T1 sequence (P04234 22-171, chain 2 of 3): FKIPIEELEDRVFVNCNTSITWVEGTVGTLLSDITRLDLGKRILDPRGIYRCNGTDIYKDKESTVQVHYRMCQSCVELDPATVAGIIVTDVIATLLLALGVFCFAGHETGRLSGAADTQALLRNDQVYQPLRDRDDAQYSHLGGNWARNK
T1 sequence (P09693 23-182, chain 3 of 3): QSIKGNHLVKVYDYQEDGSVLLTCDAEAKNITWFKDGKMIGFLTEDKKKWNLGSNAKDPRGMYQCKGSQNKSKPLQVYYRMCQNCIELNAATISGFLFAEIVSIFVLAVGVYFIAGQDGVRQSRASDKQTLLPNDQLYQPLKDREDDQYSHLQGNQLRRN

% Positive [1] [%]	gMFI [1] [gMFI]	gMFI [2] [gMFI]	% Positive [3] [%]	gMFI [3] [gMFI]	gMFI [4] [gMFI]	Jurkat WT/KO (Fold) [5] [fold]	Jurkat WT/KO (Fold) [6] [fold]	Binder
95.2	27600	14600	99.3	87700	8730	3.7	6.1	CD3 × CD33-BspAb120 (bispecific antibody) chain 1: NFMLTQPHSVSESPGKTVAISCTRSSGSIASNYVQWYQQRPGSSPTAVIYEDNQRPSGVPDRFSGSIDSSSNSAFLTISGLKTEDEADYYCQSYDSSNRVFGCGTKLTVLGGGGSGGGGSGGGGSGGGGSEVQLVESGGGLVKPGGSLRLSCAASGFTFSSYSMNWVRQAPGKCLEWVSSISRSSGYIFYADSVKGRFTISRDNAKNSLYLQMNSLRAEDTAVYYCVRERVGAGFDYWGQGTLVTVSSDKTHTCPPCPAPEFEGGPSVFLFPPKPKDTLMISRTPEVTCVVVDVSHEDPEVKFNWYVDGVEVHNAKTKPREEQYNSTYRVVSVLTVLHQDWLNGKEYKCKVSNKALPASIEKTISKAKGQPREPQVYTLPPCREEMTKNQVSLWCLVKGFYPSDIAVEWESNGQPENNYKTTPPVLDSDGSFFLYSKLTVDKSRWQQGNVFSCSVMHEALHNHYTQKSLSLSPGK chain 2: EVQLVQSGAEVKKPGSSVKVSCKASGYTITDSNIHWVRQAPGQSLEWIGYIYPYNGGTDYNQKFKNRATLTVDNPTNTAYMELSSLRSEDTAFYYCVNGNPWLAYWGQGTLVTVSSASTKGPSVFPLAPSSKSTSGGTAALGCLVKDYFPEPVTVSWNSGALTSGVHTFPAVLQSSGLYSLSSVVTVPSSSLGTQTYICNVNHKPSNTKVDKRVEPKSCDKTHTCPPCPAPEFEGGPSVFLFPPKPKDTLMISRTPEVTCVVVDVSHEDPEVKFNWYVDGVEVHNAKTKPREEQYNSTYRVVSVLTVLHQDWLNGKEYKCKVSNKALPASIEKTISKAKGQPREPQVCTLPPSREEMTKNQVSLSCAVKGFYPSDIAVEWESNGQPENNYKTTPPVLDSDGSFFLVSKLTVDKSRWQQGNVFSCSVMHEALHNRFTQKSLSLSPGK chain 3: DIQLTQSPSTLSASVGDRVTITCRASESLDNYGIRFLTWFQQKPGKAPKLLMYAASNQGSGVPSRFSGSGSGTEFTLTISSLQPDDFATYYCQQTKEVPWSFGQGTKVEVKRTVAAPSVFIFPPSDEQLKSGTASVVCLLNNFYPREAKVQWKVDNALQSGNSQESVTEQDSKDSTYSLSSTLTLSKADYEKHKVYACEVTHQGLSSPVTKSFNRGEC
1.5	1920	2040	1.5	1920	1920	0.8	1	CD3 × CD33-BspAb121 (bispecific antibody) chain 1: QTVVTQEPSLTVSPGGTVTLTCASSTGAVTSGYYPNWFQQKPGQAPRALIYSTSNKHSWTPARFSGSLLGGKAALTLSGVQPEDEAEYYCLLYYGGAYVFGCGTKVTVLGGGGSGGGGSGGGGSGGGGSEVQLVESGGGLVKPGGSLRLSCAASGFTFSSYSMNWVRQAPGKCLEWVSSISRSGTYIYYADSVKGRFTISRDNAKNSLYLQMNSLRAEDTAVYYCARERWELLYFDYWGQGTLVTVSSDKTHTCPPCPAPEFEGGPSVFLFPPKPKDTLMISRTPEVTCVVVDVSHEDPEVKFNWYVDGVEVHNAKTKPREEQYNSTYRVVSVLTVLHQDWLNGKEYKCKVSNKALPASIEKTISKAKGQPREPQVYTLPPCREEMTKNQVSLWCLVKGFYPSDIAVEWESNGQPENNYKTTPPVLDSDGSFFLYSKLTVDKSRWQQGNVFSCSVMHEALHNHYTQKSLSLSPGK chain 2: EVQLVQSGAEVKKPGSSVKVSCKASGYTITDSNIHWVRQAPGQSLEWIGYIYPYNGGTDYNQKFKNRATLTVDNPTNTAYMELSSLRSEDTAFYYCVNGNPWLAYWGQGTLVTVSSASTKGPSVFPLAPSSKSTSGGTAALGCLVKDYFPEPVTVSWNSGALTSGVHTFPAVLQSSGLYSLSSVVTVPSSSLGTQTYICNVNHKPSNTKVDKRVEPKSCDKTHTCPPCPAPEFEGGPSVFLFPPKPKDTLMISRTPEVTCVVVDVSHEDPEVKFNWYVDGVEVHNAKTKPREEQYNSTYRVVSVLTVLHQDWLNGKEYKCKVSNKALPASIEKTISKAKGQPREPQVCTLPPSREEMTKNQVSLSCAVKGFYPSDIAVEWESNGQPENNYKTTPPVLDSDGSFFLVSKLTVDKSRWQQGNVFSCSVMHEALHNRFTQKSLSLSPGK chain 3: DIQLTQSPSTLSASVGDRVTITCRASESLDNYGIRFLTWFQQKPGKAPKLLMYAASNQGSGVPSRFSGSGSGTEFTLTISSLQPDDFATYYCQQTKEVPWSFGQGTKVEVKRTVAAPSVFIFPPSDEQLKSGTASVVCLLNNFYPREAKVQWKVDNALQSGNSQESVTEQDSKDSTYSLSSTLTLSKADYEKHKVYACEVTHQGLSSPVTKSFNRGEC

Source: patent publication US20260167721A1 (ABLEXIS, published 2026)
